T1: human CD39 on the cell surface (human, UniProt P49961 1-510)
T1 sequence (looked up): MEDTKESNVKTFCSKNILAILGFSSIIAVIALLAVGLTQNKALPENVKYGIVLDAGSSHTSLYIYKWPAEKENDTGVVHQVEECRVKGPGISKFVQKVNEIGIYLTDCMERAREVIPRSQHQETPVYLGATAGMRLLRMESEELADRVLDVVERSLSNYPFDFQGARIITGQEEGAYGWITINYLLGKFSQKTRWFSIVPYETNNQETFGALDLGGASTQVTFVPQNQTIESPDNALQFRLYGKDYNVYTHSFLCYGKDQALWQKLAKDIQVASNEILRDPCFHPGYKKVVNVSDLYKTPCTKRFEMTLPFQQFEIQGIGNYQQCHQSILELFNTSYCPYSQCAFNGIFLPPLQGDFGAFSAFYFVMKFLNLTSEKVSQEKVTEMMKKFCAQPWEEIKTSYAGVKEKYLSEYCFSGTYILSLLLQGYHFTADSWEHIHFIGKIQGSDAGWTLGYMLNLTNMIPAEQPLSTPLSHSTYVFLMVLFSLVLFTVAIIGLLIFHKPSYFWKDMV

T2: hCD39-ECD-His (ACRO, CD9-H52H4) (human, UniProt P49961 38-478)
T2 construct: extracellular domain; Bought protein; also called recombinant antigen; target antigen; not shown: His tag
T2 sequence (looked up): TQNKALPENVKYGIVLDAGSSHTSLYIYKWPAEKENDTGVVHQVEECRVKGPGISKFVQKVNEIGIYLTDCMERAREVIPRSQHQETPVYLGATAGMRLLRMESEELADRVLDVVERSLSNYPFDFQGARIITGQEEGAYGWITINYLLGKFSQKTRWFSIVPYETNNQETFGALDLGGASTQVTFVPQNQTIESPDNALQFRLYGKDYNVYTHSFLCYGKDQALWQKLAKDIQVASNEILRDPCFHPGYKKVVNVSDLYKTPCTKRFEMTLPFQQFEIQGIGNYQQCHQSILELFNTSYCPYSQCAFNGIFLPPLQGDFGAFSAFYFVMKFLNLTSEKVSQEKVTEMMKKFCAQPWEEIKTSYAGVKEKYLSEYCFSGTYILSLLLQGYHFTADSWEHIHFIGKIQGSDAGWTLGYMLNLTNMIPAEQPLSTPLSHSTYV


Key:
[1] = biological target: T1, human CD39 on the cell surface; assay: cell-based or functional assay
[2] = biological target: T2, hCD39-ECD-His (ACRO, CD9-H52H4); assay: SPR, Biacore 8K, antibody captured by anti-human IgG Fc, hCD39-ECD-His as analyte
Experimental: The binding kinetics between humanized antibodies and a recombinant antigen were tested using Biacore 8K (GE, biomolecule interaction analyzer). Specifically, an anti-human IgG Fc antibody was directly immobilized on a biosensor chip to capture a test antibody. The antigen hCD39-ECD-His (ACRO, CD9-H52H4) was used as the mobile phase, and 7 concentration gradients (at an initial concentration of 200 nM, 2-fold gradient dilution) were used. The association rate constant ka (M⁻¹ s⁻¹) and dissociation rate constant kd (s⁻¹) were determined. Then, based on the formula KD=kd/ka and the kinetic rate constants, the equilibrium dissociation constant KD (M) of the reaction between the antibody and the relevant target protein was calculated. The humanized antibodies of the present invention maintained high affinity of the chimeric antibody F03 for the target antigen.

[3] = biological target: T1, human CD39 on the cell surface; assay: FACS on CHOK1-hCD39 cells, FITC-labelled goat anti-human IgG Fc secondary antibody, mean fluorescence intensity (MFI)
Experimental: The binding of the chimeric antibody F03 of the present invention to CD39 on the cell membrane surface was assayed by FACS. Specifically, CHOK1-hCD39 cells were collected and added to a 96-well plate at 1-3×10⁵ cells/well, the serially diluted chimeric antibody F03 (diluted with 1×PBS to 16.7 μg/mL as an initial concentration, 3-fold gradient dilution) was added, and the mixture was incubated at 4° C. for 30 min; after washing with PBS, an FITC-labeled goat anti-human IgG Fc secondary antibody (Jackson Immunoresearch, 109095008) diluted at 1:200 was added, and the resulting mixture was incubated at 4° C. for 30 min; after washing with PBS, the cell fluorescence intensity was detected using an FACS instrument (Beckman). Data were processed by GraphPad software.

[4] = biological target: T1, human CD39 on the cell surface; assay: FACS on SK-MEL-28 cells (natural human CD39)

| Enzymatic activity inhibition (EC50 nM) [1] | Kd [2] | koff [2] | kon [2] | EC50 [3] | EC50 [4] | Binder |
| --- | --- | --- | --- | --- | --- | --- |
| 0.09 nM | 2.67 nM | 0.000252 s⁻¹ | 94300 M⁻¹ s⁻¹ | 2.19 µg/mL | 2.07 nM | chimeric antibody F03 (antibody, human IgG4 S228P, kappa, V domains shown, Variable regions of murine mF03 on human IgG4 (S228P) and human kappa constant regions; expressed in CHO-S cells) VH: QVQLQQPGAELVKPGASVKLSCKTSGYTFTNYWMYWVKHRPGRGLEWIGRIAPSSGATKYNEKFKNKATLTVDKPSSTAYMQLSSLTSEDSAVYYCARSGIYYDYDWFFDVSGTGTTVTVSS VL: DIQMTQSPSSLSASLGGKVTITCKASQDINKYIGWYQHAPGKGPRLLIHYTSTLQPGIPSRFSGSGSGRDYSLSISNLEPEDIATYYCLQYHALLFTFGSGTKLELKR |
| 0.06 nM | 3.68 nM | 0.000331 s⁻¹ | 89900 M⁻¹ s⁻¹ | – | 1.12 nM | humanized antibody F03-12 (antibody, human IgG4 S228P, kappa, V domains shown, Human IgG4 (S228P) and human kappa constant regions) VH: QVQLVQSGAEVKKPGASVKVSCKASGYTFTNYWMYWVRQAPGQGLEWMGRIAPSSGATKYNEKFKNRVTLTVDTSISTAYMELSRLRSDDTAVYYCARSGIYYDYDWFFDVWGQGTTVTVSS VL: DIQMTQSPSSLSASVGDRVTITCKASQDINKYIGWYQQKPGKAPKLLIHYTSTLQPGVPSRFSGSGSGRDYTFTISSLQPEDIATYYCLQYHALLFTFGQGTKLEIKR |
| 0.06 nM | – | – | – | – | 1 nM | humanized antibody F03-8 (antibody, human IgG4 S228P, kappa, V domains shown, Human IgG4 (S228P) and human kappa constant regions) VH: QVQLVQSGAEVKKPGASVKVSCKASGYTFTNYWMYWVRQAPGQGLEWIGRIAPSSGATKYNEKFKNRATLTVDTSISTAYMELSRLRSDDTAVYYCARSGIYYDYDWFFDVWGQGTTVTVSS VL: DIQMTQSPSSLSASVGDRVTITCKASQDINKYIGWYQQKPGKAPKLLIHYTSTLQPGVPSRFSGSGSGTDFTFTISSLQPEDIATYYCLQYHALLFTFGQGTKLEIKR |
| 0.02 nM | 3.33 nM | 0.000176 s⁻¹ | 52800 M⁻¹ s⁻¹ | – | 1.11 nM | humanized antibody F03-15 (antibody, human IgG4 S228P, kappa, Human IgG4 (S228P) and human kappa constant regions) heavy: not shown light: DIQMTQSPSSLSASVGDRVTITCKASQDINKYIGWYQQKPGKAPKLLIHYTSTLQPGVPSRFSGSGSGRDYTFTISSLQPEDIATYYCLQYHALLFTFGQGTKLEIKRTVAAPSVFIFPPSDEQLKSGTASVVCLLNNFYPREAKVQWKVDNALQSGNSQESVTEQDSKDSTYSLSSTLTLSKADYEKHKVYACEVTHQGLSSPVTKSFNRGEC |
| 0.09 nM | – | – | – | – | 1.27 nM | humanized antibody F03-6 (antibody, human IgG4 S228P, kappa, V domains shown, Human IgG4 (S228P) heavy chain constant region and human kappa constant region) VH: QVQLVQSGAEVKKPGASVKVSCKASGYTFTNYWMYWVRQAPGQGLEWMGRIAPSSGATKYNEKFKNRVTMTRDTSISTAYMELSRLRSDDTAVYYCARSGIYYDYDWFFDVWGQGTTVTVSS VL: DIQMTQSPSSLSASVGDRVTITCKASQDINKYIGWYQQKPGKAPKLLIHYTSTLQPGVPSRFSGSGSGTDFTFTISSLQPEDIATYYCLQYHALLFTFGQGTKLEIKR |
| 0.09 nM | – | – | – | – | 1 nM | humanized antibody F03-13 (antibody, human IgG4 S228P, kappa, V domains shown, Human IgG4 (S228P) and human kappa constant regions) VH: QVQLVQSGAEVKKPGASVKVSCKASGYTFTNYWMYWVRQAPGQGLEWIGRIAPSSGATKYNEKFKNRATLTVDTSISTAYMELSRLRSDDTAVYYCARSGIYYDYDWFFDVWGQGTTVTVSS VL: DIQMTQSPSSLSASVGDRVTITCKASQDINKYIGWYQQKPGKAPKLLIHYTSTLQPGVPSRFSGSGSGRDYTFTISSLQPEDIATYYCLQYHALLFTFGQGTKLEIKR |
| 0.15 nM | – | – | – | – | 0.89 nM | humanized antibody F03-7 (antibody, human IgG4 S228P, kappa, V domains shown, Human IgG4 (S228P) and human kappa constant regions) VH: QVQLVQSGAEVKKPGASVKVSCKASGYTFTNYWMYWVRQAPGQGLEWMGRIAPSSGATKYNEKFKNRVTLTVDTSISTAYMELSRLRSDDTAVYYCARSGIYYDYDWFFDVWGQGTTVTVSS VL: DIQMTQSPSSLSASVGDRVTITCKASQDINKYIGWYQQKPGKAPKLLIHYTSTLQPGVPSRFSGSGSGTDFTFTISSLQPEDIATYYCLQYHALLFTFGQGTKLEIKR |
| 0.05 nM | 4.43 nM | 0.00031 s⁻¹ | 69800 M⁻¹ s⁻¹ | – | 0.79 nM | humanized antibody F03-14 (antibody, human IgG4 S228P, kappa, Human IgG4 (S228P) and human kappa constant regions) heavy: not shown light: DIQMTQSPSSLSASVGDRVTITCKASQDINKYIGWYQQKPGKAPKLLIHYTSTLQPGVPSRFSGSGSGRDYTFTISSLQPEDIATYYCLQYHALLFTFGQGTKLEIKRTVAAPSVFIFPPSDEQLKSGTASVVCLLNNFYPREAKVQWKVDNALQSGNSQESVTEQDSKDSTYSLSSTLTLSKADYEKHKVYACEVTHQGLSSPVTKSFNRGEC |
| 0.03 nM | 4.2 nM | 0.000336 s⁻¹ | 80100 M⁻¹ s⁻¹ | – | 0.94 nM | humanized antibody F03-11 (antibody, human IgG4 S228P, kappa, V domains shown, Human IgG4 (S228P) and human kappa constant regions) VH: QVQLVQSGAEVKKPGASVKVSCKASGYTFTNYWMYWVRQAPGQGLEWMGRIAPSSGATKYNEKFKNRVTMTRDTSISTAYMELSRLRSDDTAVYYCARSGIYYDYDWFFDVWGQGTTVTVSS VL: DIQMTQSPSSLSASVGDRVTITCKASQDINKYIGWYQQKPGKAPKLLIHYTSTLQPGVPSRFSGSGSGRDYTFTISSLQPEDIATYYCLQYHALLFTFGQGTKLEIKR |
